Measured values from publication PMC11099923.

Columns and labels:
[1] = molecular target: human α7nAChR deletion mutant Δ419-423, His-tagged (human) (UniProt P36544); experiment: pull-down; His-tag α7nAChR (~3 μM) as bait mixed with strep-tag PICK1 PDZ (~10 μM), Ni-NTA resin, overnight at 4°C, 10 mM phosphate pH 7.8, 150 mM NaCl, 0.05% LDAO, two washes with 50 mM imidazole, elution with 500 mM imidazole, SDS-PAGE, band intensities
[2] = molecular target: human α7nAChR deletion mutant Δ428-432, His-tagged (human) (UniProt P36544); experiment: as above
α7nAChR (Homo sapiens) = α7nAChR (Homo sapiens) (UniProt P36544); conditions: cited from earlier work

Row | Substance | reduction of pulldown compared to WT α7nAChR [1] [%] | reduction of pulldown compared to WT α7nAChR [2] [%] | Kd (α7nAChR (Homo sapiens)) [µM]
1 | PDZ domain of human PICK1 (Protein Interacting with C-kinase 1), strep-tagged (from UniProt Q9NRD5 19-110) (domain or fragment) | 50 | 85 | –
2 | PICK1 PDZ (from UniProt Q9NRD5) | – | – | 3
